Assay results as given in paper PMC6599204, “DNA requirement in FANCD2 deubiquitination by USP1-UAF1-RAD51AP1 in the Fanconi anemia DNA damage response” (Nature Communications, 2019).

Biological target: T1, FANCI (human, UniProt Q9NVI1 1-1328)
T1 construct: human FANCI
T1 sequence (looked up): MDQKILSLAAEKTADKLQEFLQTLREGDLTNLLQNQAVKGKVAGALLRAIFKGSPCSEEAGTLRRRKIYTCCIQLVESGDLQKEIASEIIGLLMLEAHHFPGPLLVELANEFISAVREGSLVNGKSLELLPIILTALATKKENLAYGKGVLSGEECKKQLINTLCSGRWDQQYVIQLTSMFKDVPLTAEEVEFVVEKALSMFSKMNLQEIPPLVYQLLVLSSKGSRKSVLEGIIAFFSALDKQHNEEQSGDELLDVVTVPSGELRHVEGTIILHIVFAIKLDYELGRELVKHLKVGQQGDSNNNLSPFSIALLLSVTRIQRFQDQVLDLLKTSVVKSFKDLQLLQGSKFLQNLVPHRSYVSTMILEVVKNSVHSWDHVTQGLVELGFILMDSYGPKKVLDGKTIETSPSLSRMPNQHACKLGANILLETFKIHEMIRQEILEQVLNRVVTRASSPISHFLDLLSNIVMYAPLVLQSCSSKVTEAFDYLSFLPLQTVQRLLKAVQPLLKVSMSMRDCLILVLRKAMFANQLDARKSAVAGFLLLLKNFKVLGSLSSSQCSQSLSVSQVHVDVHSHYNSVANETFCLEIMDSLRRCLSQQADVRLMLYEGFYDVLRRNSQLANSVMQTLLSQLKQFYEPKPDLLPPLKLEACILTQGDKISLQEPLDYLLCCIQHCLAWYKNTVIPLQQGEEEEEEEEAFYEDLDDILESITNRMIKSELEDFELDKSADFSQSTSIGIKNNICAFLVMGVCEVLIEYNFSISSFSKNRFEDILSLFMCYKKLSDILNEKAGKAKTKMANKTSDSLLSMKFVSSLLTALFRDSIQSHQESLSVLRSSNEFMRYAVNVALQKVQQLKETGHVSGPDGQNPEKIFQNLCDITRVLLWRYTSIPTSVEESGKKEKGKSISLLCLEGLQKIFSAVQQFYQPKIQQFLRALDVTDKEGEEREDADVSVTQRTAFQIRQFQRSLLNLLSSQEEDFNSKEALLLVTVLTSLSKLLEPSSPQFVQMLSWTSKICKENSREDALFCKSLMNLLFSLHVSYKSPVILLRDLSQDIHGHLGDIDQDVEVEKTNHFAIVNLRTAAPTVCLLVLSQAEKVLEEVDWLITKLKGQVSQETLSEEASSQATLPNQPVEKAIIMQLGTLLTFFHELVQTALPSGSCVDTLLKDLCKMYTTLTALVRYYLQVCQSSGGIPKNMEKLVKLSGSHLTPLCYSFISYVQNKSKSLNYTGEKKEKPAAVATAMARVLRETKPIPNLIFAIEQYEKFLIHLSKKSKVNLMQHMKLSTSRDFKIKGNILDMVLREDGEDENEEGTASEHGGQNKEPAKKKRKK
Assay: pull-down; same procedure as for RAD51AP1, but Strep-Tactin resin captured the complexes via the Strep tag on UAF1; USP1 or FANCI as the other protein; SDS-PAGE, Coomassie Blue
Conditions: both partners purified

binding result: binds
B1: UAF1 (natural protein)
chain: not shown
notes: human UAF1 (isoform 1), full-length; also called UAF1 (WT); UAF1 (FL); not shown: Strep-II, C-terminal, kept
